# Laboratory results published in paper PMC11965557 (Communications Biology, 2025).
# Columns and labels:
# [1] = target: cGAS-pMag (pMag fused to the C-terminus of full-length cGAS) (UniProt Q8N884); assay: dcFCCS
# [2] = target: Cyclic GMP-AMP synthase (cGAS), full-length (amino acids 1-522) (UniProt Q8N884 1-522); assay: dcFCCS
Molecule,fold increase of the proportion forming heterodimer under blue light [1] [fold],Kd [2] [nM]
nMagHigh1-ORF9 (nMagHigh1 fused to the N-terminus of VZV-ORF9),5,–
nMagHigh1-ORF52 (nMagHigh1 fused to the N-terminus of KSHV-ORF52),5,–
nMagHigh1-VP22 (nMagHigh1 fused to the N-terminus of HSV1-VP22),5,–
"Varicella-Zoster virus ORF9 (VZV-ORF9) (natural protein, AF488 NHS ester label) MASSDGDRLCRSNAVRRKTTPSYSGQYRTARRSVVVGPPDDSDDSLGYITTVGADSPSPVYADLYFEHKNTTPRVHQPNDSSGSEDDFEDIDEVVAAFREARLRHELVEDAVYENPLSVEKPSRSFTKNAAVKPKLEDSPKRAPPGAGAIASGRPISFSTAPKTATSSWCGPTPSYNKRVFCEAVRRVAAMQAQKAAEAAWNSNPPRNNAELDRLLTGAVIRITVHEGLNLIQAANEADLGEGASVSKRGHNRKTGDLQGGMGNEPMYAQVRKPKSRTDTQTTGRITNRSRARSASRTDTRK",–,~2000
"Herpes simplex virus type 1 VP22 (HSV1-VP22) (natural protein, AF488 NHS ester label) MTSRRSVKSGPREVPRDEYEDLYYTPSSGMASPDSPPDTSRRGALQTRSRQRGEVRFVQYDESDYALYGGSSSEDDEHPEVPRTRRPVSGAVLSGPGPARAPPPPAGSGGAGRTPTTAPRAPRTQRVATKAPAAPAAETTRGRKSAQPESAALPDAPASTAPTRSKTPAQGLARKLHFSTAPPNPDAPWTPRVAGFNKRVFCAAVGRLAAMHARMAAVQLWDMSRPRTDEDLNELLGITTIRVTVCEGKNLLQRANELVNPDVVQDVDAATATRGRSAASRPTERPRAPARSASRPRRPVE",–,~2000
